{"source": "patent US20240108745A1", "about": "(MEDILINK THERAPEUTICS SUZHOU, published 2024)", "key": {"[1]": {"biological_target": "T1, human Her3-his (human, UniProt P21860 20-643)", "T1 construct": "range 1-643; also called human Her3 protein", "assay": "ELISA, antigen coated at 1 µg/mL, antibody titrated, anti-human Fc-HRP", "experimental": "(§1) The affinity of anti-Her3 antibody to Her3 protein was detected by ELISA experimental method. Specific experimental procedures: human Her3-his, monkey Her3-his protein and rat Her3-his was diluted with carbonate buffer with a pH value of 9.6 to a final concentration of 1 μg/mL, and then added to 96-well enzyme labelling wells at 100 μL/well, and coated overnight at 4° C.; the coating solution was discarded, and the plate was washed once with PBST, then 100 μL of PBS (containing 2% BSA) was added to each well, and blocked at 37° C. for 1 h; then, 100 μL of anti-Her3 antibody diluted with PBS (containing 2% BSA) ((starting at 1 μg, 3 folds serial dilution, in duplicate wells) was added to each well, and then incubated at 37° C. for 2 h; the plate was washed three times with PBST, and horseradish peroxidase-labeled anti-human Fc antibody (diluted at 1:10000 with PBS) was added at 100 μL/well, then reacted for 1 h at 37° C. The plate was washed 5 times with PBST. TMB chromogenic solution was added at 100 μL/well and incubated at 37° C. for 7 min to develop color, and then the stop solution was added at 50 μL/well to terminate the reaction."}, "[2]": {"biological_target": "T2, monkey Her3-his (monkey)", "T2 chain": "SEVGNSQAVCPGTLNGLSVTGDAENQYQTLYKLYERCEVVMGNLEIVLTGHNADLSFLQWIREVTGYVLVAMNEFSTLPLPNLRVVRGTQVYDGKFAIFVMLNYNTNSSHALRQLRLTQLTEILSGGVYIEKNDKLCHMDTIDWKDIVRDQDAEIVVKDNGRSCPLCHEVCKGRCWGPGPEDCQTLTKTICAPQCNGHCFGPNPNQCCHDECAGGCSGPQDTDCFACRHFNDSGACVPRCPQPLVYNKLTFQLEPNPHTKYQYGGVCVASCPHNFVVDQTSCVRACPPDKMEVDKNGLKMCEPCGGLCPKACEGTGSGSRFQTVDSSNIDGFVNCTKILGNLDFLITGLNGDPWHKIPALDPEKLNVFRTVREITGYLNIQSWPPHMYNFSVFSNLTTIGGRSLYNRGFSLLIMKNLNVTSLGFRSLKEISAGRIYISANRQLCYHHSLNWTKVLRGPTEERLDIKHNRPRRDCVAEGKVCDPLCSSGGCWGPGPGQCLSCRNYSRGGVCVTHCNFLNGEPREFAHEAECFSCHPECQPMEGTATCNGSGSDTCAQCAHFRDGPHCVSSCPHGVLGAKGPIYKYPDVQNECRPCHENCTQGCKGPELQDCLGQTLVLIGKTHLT", "assay": "ELISA, antigen coated at 1 µg/mL, antibody titrated, anti-human Fc-HRP", "experimental": "as §1"}, "[3]": {"biological_target": "T3, rat Her3-his (rat, UniProt Q62799 20-643)", "T3 construct": "also called rat Her3 protein", "T3 sequence (Q62799 other isoform, or with tags, fused parts or gaps)": "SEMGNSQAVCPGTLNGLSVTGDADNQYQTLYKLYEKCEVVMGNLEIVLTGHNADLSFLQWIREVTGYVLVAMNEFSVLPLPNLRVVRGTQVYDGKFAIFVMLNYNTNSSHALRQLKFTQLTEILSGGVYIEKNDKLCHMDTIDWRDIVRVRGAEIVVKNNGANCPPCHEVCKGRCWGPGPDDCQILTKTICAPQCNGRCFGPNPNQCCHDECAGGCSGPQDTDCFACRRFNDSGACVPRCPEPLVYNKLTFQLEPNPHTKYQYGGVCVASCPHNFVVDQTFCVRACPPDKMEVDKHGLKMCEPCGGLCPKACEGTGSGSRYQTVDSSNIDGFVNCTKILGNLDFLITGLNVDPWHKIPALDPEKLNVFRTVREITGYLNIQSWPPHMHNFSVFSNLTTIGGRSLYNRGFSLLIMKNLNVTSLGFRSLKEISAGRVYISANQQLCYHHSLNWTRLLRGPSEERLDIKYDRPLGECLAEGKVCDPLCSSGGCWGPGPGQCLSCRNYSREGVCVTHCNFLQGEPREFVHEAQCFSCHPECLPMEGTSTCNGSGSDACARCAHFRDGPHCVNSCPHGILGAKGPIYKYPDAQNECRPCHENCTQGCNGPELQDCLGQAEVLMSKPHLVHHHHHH", "assay": "ELISA, rat Her3-his coated at 1 µg/mL, anti-human Fc-HRP", "experimental": "as §1"}}}
{"binder": "anti-Her3 antibody 202-2-1 (antibody, human IgG1, kappa, V domains shown, expressed in HEK293F; also called Her3mAb) VH: EVQLVESGGGVVQPGRSLRLSCAASGFTFSTYGMHWVRQAPGKGLEWVAVIWYDVSHKYYADSVKGRFTISRDNSKNTLSLQMNSLRAEDTAVYYCARDWGDPDAFDIWGQGTMVTVSS VL: not shown", "values": [{"measurement": "EC50", "setting": "[1]", "result": 0.021, "unit": "nM"}, {"measurement": "EC50", "setting": "[2]", "result": 0.0159, "unit": "nM"}, {"measurement": "binding result", "setting": "[3]", "result": "no binding"}]}
